Results taken from the supplement of paper PMC10567573.

B1: SOAT1 (parent)
chain: PSNGRIDIKQLIAKKIKLTAEAEE

Variants of: B1
Experiment: protein stability index of a GFP-peptide fusion (GPS, HEK-293T) (PSI 1-6); higher = more stable
Settings: c terminus: a fixed tail appended
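Also: lentivirally expressed fusions sorted by FACS into six bins by GFP to DsRed ratio, PSI derived from sequencing read proportions per bin multiplied by bin number.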

Variant	protein stability index
PSNGRIDIKQLIAKKIGLTAEAEE [K17G]	3.55
PSNGRIDIKQLIAKKITLTAEAEE [K17T]	3.5
PSNGRIDIKQLIAKKIYLTAEAEE [K17Y]	2.84
PSNGRIDIKQLIAKKICLTAEAEE [K17C]	3.05
PSNGRIDIKQLIAKKIVLTAEAEE [K17V]	3.38
PSNGRIDIKQLIAKKIQLTAEAEE [K17Q]	3.5
PSNGRIDIKQLIAKKIPLTAEAEE [K17P]	3.84
PSNGRIDIKQLIAKKILLTAEAEE [K17L]	3.12
PSNGRIDIKQLIAKKIMLTAEAEE [K17M]	3.1
PSNGRIDIKQLIAKKIELTAEAEE [K17E]	3.62
PSNGRIDIKQLIAKKIALTAEAEE [K17A]	3.67
PSNGRIDIKQLIAKKISLTAEAEE [K17S]	3.59
PSNGRIDIKQLIAKKINLTAEAEE [K17N]	3.61
PSNGRIDIKQLIAKKIWLTAEAEE [K17W]	2.53
PSNGRIDIKQLIAKKIHLTAEAEE [K17H]	3.02
PSNGRIDIKQLIAKKIRLTAEAEE [K17R]	2.99
PSNGRIDIKQLIAKKIDLTAEAEE [K17D]	4.01
PSNGRIDIKQLIAKKIFLTAEAEE [K17F]	3.15
PSNGRIDIKQLIAKKIILTAEAEE [K17I]	2.84
PSNGRIDIKQLIAKKMKLTAEAEE [I16M]	3.51
PSNGRIDIKQLIAKKCKLTAEAEE [I16C]	3.31
PSNGRIDIKQLIAKKKKLTAEAEE [I16K]	4.01
PSNGRIDIKQLIAKKLKLTAEAEE [I16L]	3.22
PSNGRIDIKQLIAKKNKLTAEAEE [I16N]	4.02

Variant	protein stability index
PSNGRIDIKQLIAKKPKLTAEAEE [I16P]	3.81
PSNGRIDIKQLIAKKFKLTAEAEE [I16F]	2.97
PSNGRIDIKQLIAKKAKLTAEAEE [I16A]	4.04
PSNGRIDIKQLIAKKWKLTAEAEE [I16W]	3.18
PSNGRIDIKQLIAKKRKLTAEAEE [I16R]	3.65
PSNGRIDIKQLIAKKDKLTAEAEE [I16D]	4.42
PSNGRIDIKQLIAKKEKLTAEAEE [I16E]	4.45
PSNGRIDIKQLIAKKQKLTAEAEE [I16Q]	3.52
PSNGRIDIKQLIAKKVKLTAEAEE [I16V]	3.75
PSNGRIDIKQLIAKKHKLTAEAEE [I16H]	3.78
PSNGRIDIKQLIAKKTKLTAEAEE [I16T]	4.1
PSNGRIDIKQLIAKKGKLTAEAEE [I16G]	4.5
PSNGRIDIKQLIAKKYKLTAEAEE [I16Y]	3.16
PSNGRIDIKQLIAKKSKLTAEAEE [I16S]	3.9
PSNGRIDIKQLIAKSIKLTAEAEE [K15S]	3.59
PSNGRIDIKQLIAKGIKLTAEAEE [K15G]	4.05
PSNGRIDIKQLIAKYIKLTAEAEE [K15Y]	2.69
PSNGRIDIKQLIAKQIKLTAEAEE [K15Q]	3.87
PSNGRIDIKQLIAKPIKLTAEAEE [K15P]	4.22
PSNGRIDIKQLIAKDIKLTAEAEE [K15D]	4.25
PSNGRIDIKQLIAKWIKLTAEAEE [K15W]	2.63
PSNGRIDIKQLIAKMIKLTAEAEE [K15M]	3.11
PSNGRIDIKQLIAKVIKLTAEAEE [K15V]	2.42
PSNGRIDIKQLIAKFIKLTAEAEE [K15F]	2.47

Variant	protein stability index
PSNGRIDIKQLIAKEIKLTAEAEE [K15E]	4.52
PSNGRIDIKQLIAKTIKLTAEAEE [K15T]	3.13
PSNGRIDIKQLIAKIIKLTAEAEE [K15I]	2.48
PSNGRIDIKQLIAKLIKLTAEAEE [K15L]	1.87
PSNGRIDIKQLIAKCIKLTAEAEE [K15C]	2.5
PSNGRIDIKQLIAKHIKLTAEAEE [K15H]	3.17
PSNGRIDIKQLIAKRIKLTAEAEE [K15R]	2.88
PSNGRIDIKQLIAKAIKLTAEAEE [K15A]	3.19
PSNGRIDIKQLIAKNIKLTAEAEE [K15N]	4.05
PSNGRIDIKQLIAKKIKVTAEAEE [L18V]	3.53
PSNGRIDIKQLIAKKIKRTAEAEE [L18R]	3.45
PSNGRIDIKQLIAKKIKDTAEAEE [L18D]	4.13
PSNGRIDIKQLIAKKIKHTAEAEE [L18H]	3.69
PSNGRIDIKQLIAKKIKETAEAEE [L18E]	4.14
PSNGRIDIKQLIAKKIKMTAEAEE [L18M]	3.27
PSNGRIDIKQLIAKKIKFTAEAEE [L18F]	3.38
PSNGRIDIKQLIAKKIKCTAEAEE [L18C]	3.67
PSNGRIDIKQLIAKKIKTTAEAEE [L18T]	3.38
PSNGRIDIKQLIAKKIKYTAEAEE [L18Y]	3.13
PSNGRIDIKQLIAKKIKWTAEAEE [L18W]	2.9
PSNGRIDIKQLIAKKIKPTAEAEE [L18P]	4.04
PSNGRIDIKQLIAKKIKGTAEAEE [L18G]	4.04
PSNGRIDIKQLIAKKIKSTAEAEE [L18S]	3.59
PSNGRIDIKQLIAKKIKQTAEAEE [L18Q]	3.89

Variant	protein stability index
PSNGRIDIKQLIAKKIKKTAEAEE [L18K]	3.23
PSNGRIDIKQLIAKKIKITAEAEE [L18I]	3.72
PSNGRIDIKQLIAKKIKATAEAEE [L18A]	3.62
PSNGRIDIKQLIAKKIKNTAEAEE [L18N]	3.73
PSNGRIDIKQLIAPKIKLTAEAEE [K14P]	4.38
PSNGRIDIKQLIAAKIKLTAEAEE [K14A]	2.88
PSNGRIDIKQLIANKIKLTAEAEE [K14N]	3.59
PSNGRIDIKQLIAMKIKLTAEAEE [K14M]	2.96
PSNGRIDIKQLIAQKIKLTAEAEE [K14Q]	3.22
PSNGRIDIKQLIASKIKLTAEAEE [K14S]	3.84
PSNGRIDIKQLIATKIKLTAEAEE [K14T]	3.34
PSNGRIDIKQLIAEKIKLTAEAEE [K14E]	4.04
PSNGRIDIKQLIADKIKLTAEAEE [K14D]	3.96
PSNGRIDIKQLIAGKIKLTAEAEE [K14G]	3.63
PSNGRIDIKQLIARKIKLTAEAEE [K14R]	3.22
PSNGRIDIKQLIALKIKLTAEAEE [K14L]	2.24
PSNGRIDIKQLIACKIKLTAEAEE [K14C]	3.37
PSNGRIDIKQLIAWKIKLTAEAEE [K14W]	3.07
PSNGRIDIKQLIAVKIKLTAEAEE [K14V]	2.98
PSNGRIDIKQLIAFKIKLTAEAEE [K14F]	2.63
PSNGRIDIKQLIAHKIKLTAEAEE [K14H]	3.46
PSNGRIDIKQLIAYKIKLTAEAEE [K14Y]	2.62
PSNGRIDIKQLIAIKIKLTAEAEE [K14I]	2.71
PSNGRIDIKQLIAKKIKLTAFAEE [E21F]	1.97

Variant	protein stability index
PSNGRIDIKQLIAKKIKLTAGAEE [E21G]	2.63
PSNGRIDIKQLIAKKIKLTAHAEE [E21H]	3.13
PSNGRIDIKQLIAKKIKLTADAEE [E21D]	3.43
PSNGRIDIKQLIAKKIKLTAQAEE [E21Q]	3.05
PSNGRIDIKQLIAKKIKLTANAEE [E21N]	3.13
PSNGRIDIKQLIAKKIKLTAMAEE [E21M]	2.4
PSNGRIDIKQLIAKKIKLTAKAEE [E21K]	2.51
PSNGRIDIKQLIAKKIKLTASAEE [E21S]	3.02
PSNGRIDIKQLIAKKIKLTAPAEE [E21P]	2.92
PSNGRIDIKQLIAKKIKLTAAAEE [E21A]	2.74
PSNGRIDIKQLIAKKIKLTAWAEE [E21W]	2.12
PSNGRIDIKQLIAKKIKLTAIAEE [E21I]	3.19
PSNGRIDIKQLIAKKIKLTAVAEE [E21V]	2.59
PSNGRIDIKQLIAKKIKLTACAEE [E21C]	2.78
PSNGRIDIKQLIAKKIKLTAYAEE [E21Y]	2.21
PSNGRIDIKQLIAKKIKLTARAEE [E21R]	2.95
PSNGRIDIKQLIAKKIKLTALAEE [E21L]	2.96
PSNGRIDIKQLIAKKIKLTATAEE [E21T]	3.15
PSNGRIDIKQLISKKIKLTAEAEE [A13S]	3.36
PSNGRIDIKQLIQKKIKLTAEAEE [A13Q]	3.47
PSNGRIDIKQLIHKKIKLTAEAEE [A13H]	3.41
PSNGRIDIKQLIWKKIKLTAEAEE [A13W]	2.83
PSNGRIDIKQLIIKKIKLTAEAEE [A13I]	3.3
PSNGRIDIKQLIVKKIKLTAEAEE [A13V]	2.84

Variant	protein stability index
PSNGRIDIKQLIDKKIKLTAEAEE [A13D]	4.08
PSNGRIDIKQLIPKKIKLTAEAEE [A13P]	3.94
PSNGRIDIKQLICKKIKLTAEAEE [A13C]	2.82
PSNGRIDIKQLILKKIKLTAEAEE [A13L]	3.13
PSNGRIDIKQLITKKIKLTAEAEE [A13T]	3.08
PSNGRIDIKQLIMKKIKLTAEAEE [A13M]	3.12
PSNGRIDIKQLIGKKIKLTAEAEE [A13G]	3.54
PSNGRIDIKQLIYKKIKLTAEAEE [A13Y]	2.97
PSNGRIDIKQLIFKKIKLTAEAEE [A13F]	2.94
PSNGRIDIKQLIKKKIKLTAEAEE [A13K]	3.48
PSNGRIDIKQLINKKIKLTAEAEE [A13N]	3.35
PSNGRIDIKQLIRKKIKLTAEAEE [A13R]	3.57
PSNGRIDIKQLIEKKIKLTAEAEE [A13E]	3.56
PSNGRIDIKQLVAKKIKLTAEAEE [I12V]	3.48
PSNGRIDIKQLWAKKIKLTAEAEE [I12W]	2.78
PSNGRIDIKQLTAKKIKLTAEAEE [I12T]	3.89
PSNGRIDIKQLYAKKIKLTAEAEE [I12Y]	3.19
PSNGRIDIKQLSAKKIKLTAEAEE [I12S]	3.82
PSNGRIDIKQLIAKKIKLLAEAEE [T19L]	2.15
PSNGRIDIKQLIAKKIKLYAEAEE [T19Y]	2.52
PSNGRIDIKQLIAKKIKLHAEAEE [T19H]	3.21
PSNGRIDIKQLIAKKIKLAAEAEE [T19A]	3.48
PSNGRIDIKQLIAKKIKLMAEAEE [T19M]	1.89
PSNGRIDIKQLIAKKIKLIAEAEE [T19I]	2.12

Variant	protein stability index
PSNGRIDIKQLIAKKIKLQAEAEE [T19Q]	2.96
PSNGRIDIKQLIAKKIKLGAEAEE [T19G]	3.17
PSNGRIDIKQLIAKKIKLNAEAEE [T19N]	3.29
PSNGRIDIKQLIAKKIKLWAEAEE [T19W]	2.21
PSNGRIDIKQLIAKKIKLFAEAEE [T19F]	1.98
PSNGRIDIKQLIAKKIKLCAEAEE [T19C]	3.06
PSNGRIDIKQLIAKKIKLRAEAEE [T19R]	2.73
PSNGRIDIKQLIAKKIKLVAEAEE [T19V]	2.75
PSNGRIDIKQLIAKKIKLPAEAEE [T19P]	3.4
PSNGRIDIKQLIAKKIKLDAEAEE [T19D]	4.18
PSNGRIDIKQLIAKKIKLEAEAEE [T19E]	3.88
PSNGRIDIKQLIAKKIKLSAEAEE [T19S]	2.9
PSNGRIDIKQLIAKKIKLKAEAEE [T19K]	2.52
PSNGRIDIKQLIAKKIKLTMEAEE [A20M]	2.71
PSNGRIDIKQLIAKKIKLTDEAEE [A20D]	3.16
PSNGRIDIKQLIAKKIKLTNEAEE [A20N]	3.19
PSNGRIDIKQLIAKKIKLTEEAEE [A20E]	3.88
PSNGRIDIKQLIAKKIKLTWEAEE [A20W]	2.66
PSNGRIDIKQLIAKKIKLTLEAEE [A20L]	3.1
PSNGRIDIKQLIAKKIKLTCEAEE [A20C]	3.44
PSNGRIDIKQLIAKKIKLTVEAEE [A20V]	2.8
PSNGRIDIKQLIAKKIKLTSEAEE [A20S]	3.61
PSNGRIDIKQLIAKKIKLTFEAEE [A20F]	2.51
PSNGRIDIKQLIAKKIKLTHEAEE [A20H]	3.66

Variant	protein stability index
PSNGRIDIKQLIAKKIKLTYEAEE [A20Y]	2.8
PSNGRIDIKQLIAKKIKLTQEAEE [A20Q]	3.44
PSNGRIDIKQLIAKKIKLTTEAEE [A20T]	3.47
PSNGRIDIKQLIAKKIKLTPEAEE [A20P]	3.78
PSNGRIDIKQLIAKKIKLTKEAEE [A20K]	3.47
PSNGRIDIKQLIAKKIKLTIEAEE [A20I]	2.7
PSNGRIDIKQLIAKKIKLTREAEE [A20R]	3.07
PSNGRIDIKQLIAKKIKLTGEAEE [A20G]	3.42
PSNGRIDIKQLIAKKIKLTAECEE [A22C]	2.63
PSNGRIDIKQLIAKKIKLTAEHEE [A22H]	3.42
PSNGRIDIKQLIAKKIKLTAEPEE [A22P]	3.18
PSNGRIDIKQLIAKKIKLTAEEEE [A22E]	3.93
PSNGRIDIKQLIAKKIKLTAEGEE [A22G]	3.66
PSNGRIDIKQLIAKKIKLTAEIEE [A22I]	2.59
PSNGRIDIKQLIAKKIKLTAELEE [A22L]	3.2
PSNGRIDIKQLIAKKIKLTAENEE [A22N]	3.32
PSNGRIDIKQLIAKKIKLTAEDEE [A22D]	4.05
PSNGRIDIKQLIAKKIKLTAEFEE [A22F]	2.35
PSNGRIDIKQLIAKKIKLTAEMEE [A22M]	3
PSNGRIDIKQLIAKKIKLTAEKEE [A22K]	3.15
